Consider 125 sequences from the supplement of paper PMC9112550, “Optimization of the antimicrobial peptide Bac7 by deep mutational scanning” (BMC Biology, 2022).

For this series, the system named is Escherichia coli TOP10. Description: shrunken log2 fold change of peptide-encoding DNA abundance (4.5 h post-induction vs induction); higher = less antimicrobial activity (less host growth inhibition). As to conditions: time post-induction: 4.5 h; library: site-saturation at positions 5, 18, 19, 20.
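Also: peptides expressed intracellularly from a pBAD plasmid library in pooled LB shake-flask culture, induced with 0.3% L-arabinose, DNA abundance read by NGS, three biological replicates, DESeq2 with apeglm shrinkage.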

RRIRTRPPRLPRPRPRPGPKPRP: the “shrunken log2 fold change” value is 0.152.

Consider RRIRRRPPRLPRPRPRPYNPPRP, for which the “shrunken log2 fold change” value was -0.348.

Turning to RRIRNRPPRLPRPRPRPNWEPRP, the “shrunken log2 fold change” value was found to be 0.0299.

As to RRIRLRPPRLPRPRPRPWMQPRP, the “shrunken log2 fold change” value stood at 0.0547.

For RRIRDRPPRLPRPRPRPLREPRP, the “shrunken log2 fold change” value came out at 0.714.

For the sequence RRIRMRPPRLPRPRPRPSNNPRP, the “shrunken log2 fold change” value is -0.0389.

With RRIRYRPPRLPRPRPRPIIGPRP, the “shrunken log2 fold change” value is -0.178.

On to RRIRHRPPRLPRPRPRPAQMPRP, for which the “shrunken log2 fold change” value is 0.127.

Take RRIRKRPPRLPRPRPRPKRRPRP: the “shrunken log2 fold change” value came to 0.0103.

For RRIRARPPRLPRPRPRPTEEPRP, the “shrunken log2 fold change” value was -0.082.

With RRIRVRPPRLPRPRPRPPELPRP, the “shrunken log2 fold change” value came to 0.186.

Regarding RRIRFRPPRLPRPRPRPEVYPRP, the “shrunken log2 fold change” value turned out to be 0.000414.

As to RRIRGRPPRLPRPRPRPCDEPRP, the “shrunken log2 fold change” value was 0.566.

Take RRIRRRPPRLPRPRPRPKNKPRP: the “shrunken log2 fold change” value was 0.294.

For RRIRTRPPRLPRPRPRPNKVPRP, the “shrunken log2 fold change” value is -0.326.

With RRIRWRPPRLPRPRPRPFFDPRP, the “shrunken log2 fold change” value was found to be 0.0993.

For the sequence RRIRVRPPRLPRPRPRPQKTPRP, the “shrunken log2 fold change” value was 0.0603.

On to RRIRFRPPRLPRPRPRPSEDPRP, for which the “shrunken log2 fold change” value came to 0.00214.

Regarding RRIRIRPPRLPRPRPRPKVAPRP, the “shrunken log2 fold change” value was 0.283.

RRIRSRPPRLPRPRPRPCPEPRP: the “shrunken log2 fold change” value is -0.444.

In the case of RRIRMRPPRLPRPRPRPDQTPRP, the “shrunken log2 fold change” value was 0.0101.

In the case of RRIRNRPPRLPRPRPRPFHQPRP, the “shrunken log2 fold change” value came to 0.151.

RRIRKRPPRLPRPRPRPTVSPRP: the “shrunken log2 fold change” value stood at 0.099.

Regarding RRIRYRPPRLPRPRPRPIERPRP, the “shrunken log2 fold change” value worked out at 0.0253.

On to RRIRTRPPRLPRPRPRPGFGPRP, for which the “shrunken log2 fold change” value worked out at 0.263.

On to RRIRHRPPRLPRPRPRPCTCPRP, for which the “shrunken log2 fold change” value was -0.0115.

For the sequence RRIRGRPPRLPRPRPRPFDVPRP, the “shrunken log2 fold change” value amounted to 0.147.

Turning to RRIRMRPPRLPRPRPRPRANPRP, the “shrunken log2 fold change” value worked out at 0.922.

For the sequence RRIRMRPPRLPRPRPRPGLQPRP, the “shrunken log2 fold change” value is 4.5.

Consider RRIRWRPPRLPRPRPRPINHPRP, for which the “shrunken log2 fold change” value was -0.914.

RRIRSRPPRLPRPRPRPNTEPRP: the “shrunken log2 fold change” value amounted to 0.121.

As for RRIRMRPPRLPRPRPRPHLAPRP, the “shrunken log2 fold change” value turned out to be 1.6.

For the sequence RRIRHRPPRLPRPRPRPKPKPRP, the “shrunken log2 fold change” value amounted to 0.231.

As to RRIRNRPPRLPRPRPRPMFFPRP, the “shrunken log2 fold change” value is -0.189.

In the case of RRIRFRPPRLPRPRPRPVMTPRP, the “shrunken log2 fold change” value is -0.218.

Take RRIRVRPPRLPRPRPRPRAEPRP: the “shrunken log2 fold change” value is 0.677.

As for RRIRARPPRLPRPRPRPTNVPRP, the “shrunken log2 fold change” value turned out to be 0.0619.

Regarding RRIRRRPPRLPRPRPRPPNCPRP, the “shrunken log2 fold change” value came out at 0.15.

In the case of RRIRDRPPRLPRPRPRPMAAPRP, the “shrunken log2 fold change” value turned out to be 0.0982.

In the case of RRIRVRPPRLPRPRPRPQAEPRP, the “shrunken log2 fold change” value amounted to 0.352.

For RRIRGRPPRLPRPRPRPHIKPRP, the “shrunken log2 fold change” value is -0.0279.

With RRIRRRPPRLPRPRPRPYWCPRP, the “shrunken log2 fold change” value was -0.0451.

With RRIRYRPPRLPRPRPRPTNAPRP, the “shrunken log2 fold change” value is -0.24.

With RRIRVRPPRLPRPRPRPDFLPRP, the “shrunken log2 fold change” value is -0.189.

In the case of RRIRIRPPRLPRPRPRPMFRPRP, the “shrunken log2 fold change” value was -0.0542.

On to RRIRKRPPRLPRPRPRPYPMPRP, for which the “shrunken log2 fold change” value is -0.2.

As for RRIRNRPPRLPRPRPRPKWFPRP, the “shrunken log2 fold change” value was 0.00131.

Take RRIRERPPRLPRPRPRPAQCPRP: the “shrunken log2 fold change” value was -0.0401.

As for RRIRGRPPRLPRPRPRPLKDPRP, the “shrunken log2 fold change” value stood at 0.125.

Regarding RRIRERPPRLPRPRPRPWWTPRP, the “shrunken log2 fold change” value was -0.0694.

Turning to RRIRDRPPRLPRPRPRPSLGPRP, the “shrunken log2 fold change” value stood at 0.487.

Take RRIRTRPPRLPRPRPRPKEMPRP: the “shrunken log2 fold change” value was -0.0567.

With RRIRSRPPRLPRPRPRPDPEPRP, the “shrunken log2 fold change” value stood at 0.183.

On to RRIRLRPPRLPRPRPRPRKGPRP, for which the “shrunken log2 fold change” value is 0.0226.

For the sequence RRIRKRPPRLPRPRPRPVVKPRP, the “shrunken log2 fold change” value was -0.0849.

On to RRIRKRPPRLPRPRPRPPWPPRP, for which the “shrunken log2 fold change” value worked out at 0.827.

With RRIRDRPPRLPRPRPRPNAFPRP, the “shrunken log2 fold change” value was -0.0726.

Regarding RRIRTRPPRLPRPRPRPICDPRP, the “shrunken log2 fold change” value is -0.168.

As to RRIRPRPPRLPRPRPRPNNMPRP, the “shrunken log2 fold change” value was -0.412.

As to RRIRMRPPRLPRPRPRPIAMPRP, the “shrunken log2 fold change” value came to 0.0028.

For the sequence RRIRKRPPRLPRPRPRPPYTPRP, the “shrunken log2 fold change” value stood at 0.0509.

Regarding RRIRHRPPRLPRPRPRPTIMPRP, the “shrunken log2 fold change” value is -0.362.

In the case of RRIRLRPPRLPRPRPRPQCNPRP, the “shrunken log2 fold change” value was -0.0192.

In the case of RRIRSRPPRLPRPRPRPRWGPRP, the “shrunken log2 fold change” value turned out to be 0.228.

On to RRIRCRPPRLPRPRPRPIMEPRP, for which the “shrunken log2 fold change” value was -0.231.

Consider RRIRARPPRLPRPRPRPESCPRP, for which the “shrunken log2 fold change” value was determined as 0.869.

As for RRIRMRPPRLPRPRPRPMPGPRP, the “shrunken log2 fold change” value is 0.0377.

Consider RRIRWRPPRLPRPRPRPRYRPRP, for which the “shrunken log2 fold change” value stood at 0.124.

As to RRIRVRPPRLPRPRPRPQAFPRP, the “shrunken log2 fold change” value stood at 0.0753.

Take RRIRYRPPRLPRPRPRPCGYPRP: the “shrunken log2 fold change” value is -0.467.

On to RRIRRRPPRLPRPRPRPEHDPRP, for which the “shrunken log2 fold change” value amounted to 0.356.

As to RRIRNRPPRLPRPRPRPLPYPRP, the “shrunken log2 fold change” value was -0.542.

In the case of RRIRYRPPRLPRPRPRPFYEPRP, the “shrunken log2 fold change” value is -1.2.

For RRIRNRPPRLPRPRPRPWACPRP, the “shrunken log2 fold change” value is 0.0014.

With RRIRSRPPRLPRPRPRPLENPRP, the “shrunken log2 fold change” value was -0.0294.

Turning to RRIRHRPPRLPRPRPRPDQQPRP, the “shrunken log2 fold change” value was found to be 0.0104.

Take RRIRTRPPRLPRPRPRPIEPPRP: the “shrunken log2 fold change” value was -0.0864.

In the case of RRIRYRPPRLPRPRPRPDDSPRP, the “shrunken log2 fold change” value came out at 0.00262.

Take RRIRQRPPRLPRPRPRPTNIPRP: the “shrunken log2 fold change” value is -0.122.

For RRIRLRPPRLPRPRPRPGTDPRP, the “shrunken log2 fold change” value is -0.151.

Regarding RRIRWRPPRLPRPRPRPYCCPRP, the “shrunken log2 fold change” value was -0.569.

On to RRIRKRPPRLPRPRPRPWWIPRP, for which the “shrunken log2 fold change” value is -0.0457.

On to RRIRNRPPRLPRPRPRPQIPPRP, for which the “shrunken log2 fold change” value was 0.0549.

As to RRIRLRPPRLPRPRPRPPAGPRP, the “shrunken log2 fold change” value stood at 0.607.

Regarding RRIRHRPPRLPRPRPRPAYPPRP, the “shrunken log2 fold change” value is -0.37.

For the sequence RRIRMRPPRLPRPRPRPGMMPRP, the “shrunken log2 fold change” value was determined as 0.185.

For the sequence RRIRIRPPRLPRPRPRPMFVPRP, the “shrunken log2 fold change” value was -0.279.

For RRIRARPPRLPRPRPRPQYWPRP, the “shrunken log2 fold change” value was -0.167.

As to RRIRKRPPRLPRPRPRPNGKPRP, the “shrunken log2 fold change” value is -0.114.

Turning to RRIRNRPPRLPRPRPRPNKHPRP, the “shrunken log2 fold change” value was -0.528.

Consider RRIRHRPPRLPRPRPRPEVCPRP, for which the “shrunken log2 fold change” value is 0.116.

RRIRYRPPRLPRPRPRPERNPRP: the “shrunken log2 fold change” value came to 0.00677.

On to RRIRSRPPRLPRPRPRPNRRPRP, for which the “shrunken log2 fold change” value was -0.0429.

For the sequence RRIRTRPPRLPRPRPRPEPLPRP, the “shrunken log2 fold change” value is 0.0272.

With RRIRSRPPRLPRPRPRPPLTPRP, the “shrunken log2 fold change” value was 0.367.

Regarding RRIRMRPPRLPRPRPRPELGPRP, the “shrunken log2 fold change” value turned out to be 0.276.

For RRIRKRPPRLPRPRPRPNFGPRP, the “shrunken log2 fold change” value was 0.252.

Regarding RRIRRRPPRLPRPRPRPFKYPRP, the “shrunken log2 fold change” value was -0.252.

With RRIRSRPPRLPRPRPRPDLLPRP, the “shrunken log2 fold change” value was -0.0424.

For RRIRPRPPRLPRPRPRPFCLPRP, the “shrunken log2 fold change” value was -0.0969.

For RRIRHRPPRLPRPRPRPAFSPRP, the “shrunken log2 fold change” value was -0.0483.

Take RRIRERPPRLPRPRPRPAFIPRP: the “shrunken log2 fold change” value is -0.012.

As for RRIRHRPPRLPRPRPRPYLEPRP, the “shrunken log2 fold change” value is -0.0394.

Take RRIRGRPPRLPRPRPRPENYPRP: the “shrunken log2 fold change” value was -0.144.

Turning to RRIRVRPPRLPRPRPRPCDGPRP, the “shrunken log2 fold change” value is 0.0303.

RRIRCRPPRLPRPRPRPIGIPRP: the “shrunken log2 fold change” value is -0.303.

With RRIRTRPPRLPRPRPRPQKHPRP, the “shrunken log2 fold change” value is -0.459.

On to RRIRWRPPRLPRPRPRPVEDPRP, for which the “shrunken log2 fold change” value was determined as 0.00386.

On to RRIRIRPPRLPRPRPRPPNGPRP, for which the “shrunken log2 fold change” value is -0.291.

Turning to RRIRFRPPRLPRPRPRPLYTPRP, the “shrunken log2 fold change” value was -0.58.

Consider RRIRKRPPRLPRPRPRPKFGPRP, for which the “shrunken log2 fold change” value was determined as 0.0786.

RRIRYRPPRLPRPRPRPHWPPRP: the “shrunken log2 fold change” value is -0.322.

For RRIRPRPPRLPRPRPRPGRYPRP, the “shrunken log2 fold change” value worked out at 0.37.

Consider RRIRNRPPRLPRPRPRPYNWPRP, for which the “shrunken log2 fold change” value is -0.161.

Take RRIRRRPPRLPRPRPRPNFHPRP: the “shrunken log2 fold change” value amounted to 0.75.

As for RRIRSRPPRLPRPRPRPCDSPRP, the “shrunken log2 fold change” value was -0.207.

RRIRMRPPRLPRPRPRPSGTPRP: the “shrunken log2 fold change” value was found to be 0.215.

For the sequence RRIRGRPPRLPRPRPRPWCQPRP, the “shrunken log2 fold change” value turned out to be 0.224.

Consider RRIRGRPPRLPRPRPRPEVQPRP, for which the “shrunken log2 fold change” value worked out at 1.71.

As for RRIRLRPPRLPRPRPRPNNKPRP, the “shrunken log2 fold change” value is -0.357.

Regarding RRIRWRPPRLPRPRPRPAFFPRP, the “shrunken log2 fold change” value turned out to be 0.111.

Take RRIRYRPPRLPRPRPRPVRDPRP: the “shrunken log2 fold change” value was -0.123.

In the case of RRIRFRPPRLPRPRPRPFYWPRP, the “shrunken log2 fold change” value is -0.217.

Take RRIRIRPPRLPRPRPRPTVGPRP: the “shrunken log2 fold change” value was determined as 0.152.

As for RRIRSRPPRLPRPRPRPHFNPRP, the “shrunken log2 fold change” value was -0.419.
